Source: patent US20250339531A1, “DUX4 POLYPEPTIDES AND NUCLEIC ACIDS FOR TREATING INFLAMMATORY AND AUTOIMMUNE CONDITIONS” (Fred Hutchinson Cancer Center, priority 2021, published 2025)

Experiments:
[1] = target: 40S ribosomal protein S8 (Homo sapiens) (UniProt P62241); assay: anti-FLAG co-IP LC-MS, exp 3, +IFNg +Dox
[2] = target: Ribosome-binding protein 1 (Homo sapiens) (UniProt Q9P2E9); assay: anti-FLAG co-IP LC-MS, exp 3, +IFNg +Dox
[3] = target: Heat shock protein HSP 90-alpha (Homo sapiens) (UniProt P07900); assay: anti-FLAG co-IP LC-MS, exp 3, +IFNg +Dox
[4] = target: Fibronectin (Homo sapiens) (UniProt P02751); assay: anti-FLAG co-IP LC-MS, exp 3, +IFNg +Dox
Serpin B3 (Homo sapiens) = Serpin B3 (Homo sapiens) (UniProt P29508); assay: anti-FLAG co-IP LC-MS, exp 3, +IFNg +Dox
[5] = target: Keratin, type II cytoskeletal 71 (Homo sapiens) (UniProt Q3SY84); assay: anti-FLAG co-IP LC-MS, exp 3, +IFNg +Dox
[6] = target: Sodium/potassium-transporting ATPase subunit alpha-1 (Homo sapiens) (UniProt P05023); assay: anti-FLAG co-IP LC-MS, exp 3, +IFNg +Dox
[7] = target: 60S ribosomal protein L3 (Homo sapiens) (UniProt P39023); assay: anti-FLAG co-IP LC-MS, exp 3, +IFNg +Dox
[8] = target: Importin-5 (Fragment) (Homo sapiens) (UniProt O00410); assay: anti-FLAG co-IP LC-MS, exp 3, +IFNg +Dox
[9] = target: 26S proteasome non-ATPase regulatory subunit 2 (Homo sapiens) (UniProt Q13200); assay: anti-FLAG co-IP LC-MS, exp 3, +IFNg +Dox
[10] = target: Aspartyl/asparaginyl beta-hydroxylase (Homo sapiens) (UniProt Q12797); assay: anti-FLAG co-IP LC-MS, exp 3, +IFNg +Dox
[11] = target: KN motif and ankyrin repeat domain-containing protein 2 (Homo sapiens) (UniProt Q63ZY3); assay: anti-FLAG co-IP LC-MS, exp 3, +IFNg +Dox
[12] = target: Eukaryotic translation initiation factor 3 subunit A (Homo sapiens) (UniProt Q14152); assay: anti-FLAG co-IP LC-MS, exp 3, +IFNg +Dox
[13] = target: Elongation factor 1-alpha 1 (Homo sapiens) (UniProt P68104); assay: anti-FLAG co-IP LC-MS, exp 3, +IFNg +Dox
[14] = target: Heat shock 70 kDa protein 1B (Homo sapiens) (UniProt P0DMV9); assay: anti-FLAG co-IP LC-MS, exp 3, +IFNg +Dox
[15] = target: Neuroblast differentiation-associated protein AHNAK (Homo sapiens) (UniProt Q09666); assay: anti-FLAG co-IP LC-MS, exp 3, +IFNg +Dox
[16] = target: Tubulin alpha chain (Homo sapiens) (UniProt F5H5D3); assay: anti-FLAG co-IP LC-MS, exp 3, +IFNg +Dox
[17] = target: 60S ribosomal protein L4 (Homo sapiens) (UniProt P36578); assay: anti-FLAG co-IP LC-MS, exp 3, +IFNg +Dox
[18] = target: Cytoskeleton-associated protein 4 (Homo sapiens) (UniProt Q07065); assay: anti-FLAG co-IP LC-MS, exp 3, +IFNg +Dox
[19] = target: 40S ribosomal protein S4, X isoform (Homo sapiens) (UniProt P62701); assay: anti-FLAG co-IP LC-MS, exp 3, +IFNg +Dox
[20] = target: 60S ribosomal protein L19 (Homo sapiens) (UniProt P84098); assay: anti-FLAG co-IP LC-MS, exp 3, +IFNg +Dox
[21] = target: Alpha-actinin-4 (Homo sapiens) (UniProt O43707); assay: anti-FLAG co-IP LC-MS, exp 3, +IFNg +Dox
[22] = target: Tubulin beta chain (Homo sapiens) (UniProt P07437); assay: anti-FLAG co-IP LC-MS, exp 3, +IFNg +Dox
[23] = target: AP-2 complex subunit alpha-1 (Homo sapiens) (UniProt O95782); assay: anti-FLAG co-IP LC-MS, exp 3, +IFNg +Dox
[24] = target: ATP synthase subunit alpha, mitochondrial (Homo sapiens) (UniProt P25705); assay: anti-FLAG co-IP LC-MS, exp 3, +IFNg +Dox
Myosin-9 (Homo sapiens) = Myosin-9 (Homo sapiens) (UniProt P35579); assay: anti-FLAG co-IP LC-MS, exp 3, +IFNg +Dox
[25] = target: Spectrin beta chain (Homo sapiens) (UniProt Q01082); assay: anti-FLAG co-IP LC-MS, exp 3, +IFNg +Dox
[26] = target: Polypyrimidine tract-binding protein 1 (Homo sapiens) (UniProt P26599); assay: anti-FLAG co-IP LC-MS, exp 3, +IFNg +Dox
[27] = target: Prelamin-A/C (Homo sapiens) (UniProt P02545); assay: anti-FLAG co-IP LC-MS, exp 3, +IFNg +Dox
[28] = target: Procollagen-lysine,2-oxoglutarate 5-dioxygenase 2 (Homo sapiens) (UniProt O00469); assay: anti-FLAG co-IP LC-MS, exp 3, +IFNg +Dox
[29] = target: Junctional sarcoplasmic reticulum protein 1 (Homo sapiens) (UniProt Q96MG2); assay: anti-FLAG co-IP LC-MS, exp 3, +IFNg +Dox
[30] = target: Tubulin beta-6 chain (Homo sapiens) (UniProt Q9BUF5); assay: anti-FLAG co-IP LC-MS, exp 3, +IFNg +Dox
[31] = target: Tubulin beta-2A chain (Homo sapiens) (UniProt Q13885); assay: anti-FLAG co-IP LC-MS, exp 3, +IFNg +Dox
[32] = target: 60S ribosomal protein L11 (Homo sapiens) (UniProt P62913); assay: anti-FLAG co-IP LC-MS, exp 3, +IFNg +Dox
[33] = target: Prostate tumor-overexpressed gene 1 protein (Homo sapiens) (UniProt Q86YD1); assay: anti-FLAG co-IP LC-MS, exp 3, +Dox
[34] = target: 60S ribosomal protein L8 (Homo sapiens) (UniProt P62917); assay: anti-FLAG co-IP LC-MS, exp 3, +Dox
[35] = target: Tubulin beta-6 chain (Homo sapiens) (UniProt Q9BUF5); assay: anti-FLAG co-IP LC-MS, exp 3, +Dox

Sequence of Tubulin beta-6 chain (Homo sapiens) (Q9BUF5 whole entry): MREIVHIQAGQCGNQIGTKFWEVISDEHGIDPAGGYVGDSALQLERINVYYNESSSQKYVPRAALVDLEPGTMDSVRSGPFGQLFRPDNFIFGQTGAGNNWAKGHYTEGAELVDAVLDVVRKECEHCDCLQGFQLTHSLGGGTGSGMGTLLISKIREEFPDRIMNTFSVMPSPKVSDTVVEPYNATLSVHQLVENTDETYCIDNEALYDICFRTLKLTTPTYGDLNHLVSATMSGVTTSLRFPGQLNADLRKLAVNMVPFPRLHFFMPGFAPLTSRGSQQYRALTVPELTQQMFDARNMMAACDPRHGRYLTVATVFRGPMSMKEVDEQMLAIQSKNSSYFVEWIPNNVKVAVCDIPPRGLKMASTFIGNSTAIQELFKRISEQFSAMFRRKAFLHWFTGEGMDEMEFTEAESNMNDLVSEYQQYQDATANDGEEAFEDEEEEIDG
Sequence of ATP synthase subunit alpha, mitochondrial (Homo sapiens) (P25705 44-553 limits assumed): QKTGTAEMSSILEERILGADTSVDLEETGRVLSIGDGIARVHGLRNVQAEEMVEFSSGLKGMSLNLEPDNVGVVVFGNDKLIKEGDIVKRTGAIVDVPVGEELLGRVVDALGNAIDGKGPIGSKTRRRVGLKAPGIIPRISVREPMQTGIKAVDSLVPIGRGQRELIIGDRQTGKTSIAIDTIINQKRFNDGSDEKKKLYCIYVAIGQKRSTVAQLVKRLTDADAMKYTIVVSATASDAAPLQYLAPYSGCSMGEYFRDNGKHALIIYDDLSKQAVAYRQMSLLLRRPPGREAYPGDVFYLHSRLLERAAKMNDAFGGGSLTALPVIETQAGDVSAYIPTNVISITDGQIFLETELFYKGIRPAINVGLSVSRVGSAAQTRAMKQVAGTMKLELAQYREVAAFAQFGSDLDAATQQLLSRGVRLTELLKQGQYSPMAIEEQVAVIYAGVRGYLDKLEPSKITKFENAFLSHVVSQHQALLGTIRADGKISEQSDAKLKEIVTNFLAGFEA
Sequence of Tubulin beta-2A chain (Homo sapiens) (Q13885 whole entry): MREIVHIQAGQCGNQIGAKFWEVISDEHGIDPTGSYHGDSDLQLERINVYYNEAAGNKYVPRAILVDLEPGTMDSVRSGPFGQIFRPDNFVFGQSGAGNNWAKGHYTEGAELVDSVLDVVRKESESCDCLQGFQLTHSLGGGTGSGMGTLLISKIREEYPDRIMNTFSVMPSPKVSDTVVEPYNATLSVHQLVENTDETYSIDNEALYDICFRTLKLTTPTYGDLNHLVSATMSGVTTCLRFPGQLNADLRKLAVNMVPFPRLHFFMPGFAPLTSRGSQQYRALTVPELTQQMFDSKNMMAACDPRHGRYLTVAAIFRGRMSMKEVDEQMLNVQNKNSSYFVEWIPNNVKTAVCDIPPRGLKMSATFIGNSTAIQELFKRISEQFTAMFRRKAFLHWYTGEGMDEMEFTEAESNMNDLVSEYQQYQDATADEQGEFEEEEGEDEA
Sequence of 26S proteasome non-ATPase regulatory subunit 2 (Homo sapiens) (Q13200 whole entry): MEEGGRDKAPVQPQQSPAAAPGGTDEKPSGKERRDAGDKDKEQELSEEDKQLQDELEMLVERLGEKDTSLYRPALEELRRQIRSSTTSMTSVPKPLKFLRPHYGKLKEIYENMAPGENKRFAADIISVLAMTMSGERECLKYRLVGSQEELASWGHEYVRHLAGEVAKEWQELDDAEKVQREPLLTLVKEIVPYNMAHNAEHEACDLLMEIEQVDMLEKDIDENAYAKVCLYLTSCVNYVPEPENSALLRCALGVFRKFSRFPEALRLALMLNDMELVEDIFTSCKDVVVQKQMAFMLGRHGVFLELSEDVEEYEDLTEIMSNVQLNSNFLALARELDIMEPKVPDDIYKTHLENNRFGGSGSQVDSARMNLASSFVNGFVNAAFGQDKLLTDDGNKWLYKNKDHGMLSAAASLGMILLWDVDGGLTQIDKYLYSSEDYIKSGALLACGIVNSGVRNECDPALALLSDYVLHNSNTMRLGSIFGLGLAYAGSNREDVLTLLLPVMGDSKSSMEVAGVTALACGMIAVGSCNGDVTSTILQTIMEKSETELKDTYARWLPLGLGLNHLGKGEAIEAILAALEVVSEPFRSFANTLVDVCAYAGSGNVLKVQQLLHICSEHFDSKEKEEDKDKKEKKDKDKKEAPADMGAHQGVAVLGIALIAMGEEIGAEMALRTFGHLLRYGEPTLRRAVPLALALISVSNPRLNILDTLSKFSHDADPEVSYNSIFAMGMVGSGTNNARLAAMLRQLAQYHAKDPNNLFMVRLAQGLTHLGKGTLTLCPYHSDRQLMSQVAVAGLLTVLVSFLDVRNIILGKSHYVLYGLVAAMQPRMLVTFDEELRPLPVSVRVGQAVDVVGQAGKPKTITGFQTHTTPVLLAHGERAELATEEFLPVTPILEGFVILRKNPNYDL
Sequence of Myosin-9 (Homo sapiens) (P35579 2-1960 limits assumed): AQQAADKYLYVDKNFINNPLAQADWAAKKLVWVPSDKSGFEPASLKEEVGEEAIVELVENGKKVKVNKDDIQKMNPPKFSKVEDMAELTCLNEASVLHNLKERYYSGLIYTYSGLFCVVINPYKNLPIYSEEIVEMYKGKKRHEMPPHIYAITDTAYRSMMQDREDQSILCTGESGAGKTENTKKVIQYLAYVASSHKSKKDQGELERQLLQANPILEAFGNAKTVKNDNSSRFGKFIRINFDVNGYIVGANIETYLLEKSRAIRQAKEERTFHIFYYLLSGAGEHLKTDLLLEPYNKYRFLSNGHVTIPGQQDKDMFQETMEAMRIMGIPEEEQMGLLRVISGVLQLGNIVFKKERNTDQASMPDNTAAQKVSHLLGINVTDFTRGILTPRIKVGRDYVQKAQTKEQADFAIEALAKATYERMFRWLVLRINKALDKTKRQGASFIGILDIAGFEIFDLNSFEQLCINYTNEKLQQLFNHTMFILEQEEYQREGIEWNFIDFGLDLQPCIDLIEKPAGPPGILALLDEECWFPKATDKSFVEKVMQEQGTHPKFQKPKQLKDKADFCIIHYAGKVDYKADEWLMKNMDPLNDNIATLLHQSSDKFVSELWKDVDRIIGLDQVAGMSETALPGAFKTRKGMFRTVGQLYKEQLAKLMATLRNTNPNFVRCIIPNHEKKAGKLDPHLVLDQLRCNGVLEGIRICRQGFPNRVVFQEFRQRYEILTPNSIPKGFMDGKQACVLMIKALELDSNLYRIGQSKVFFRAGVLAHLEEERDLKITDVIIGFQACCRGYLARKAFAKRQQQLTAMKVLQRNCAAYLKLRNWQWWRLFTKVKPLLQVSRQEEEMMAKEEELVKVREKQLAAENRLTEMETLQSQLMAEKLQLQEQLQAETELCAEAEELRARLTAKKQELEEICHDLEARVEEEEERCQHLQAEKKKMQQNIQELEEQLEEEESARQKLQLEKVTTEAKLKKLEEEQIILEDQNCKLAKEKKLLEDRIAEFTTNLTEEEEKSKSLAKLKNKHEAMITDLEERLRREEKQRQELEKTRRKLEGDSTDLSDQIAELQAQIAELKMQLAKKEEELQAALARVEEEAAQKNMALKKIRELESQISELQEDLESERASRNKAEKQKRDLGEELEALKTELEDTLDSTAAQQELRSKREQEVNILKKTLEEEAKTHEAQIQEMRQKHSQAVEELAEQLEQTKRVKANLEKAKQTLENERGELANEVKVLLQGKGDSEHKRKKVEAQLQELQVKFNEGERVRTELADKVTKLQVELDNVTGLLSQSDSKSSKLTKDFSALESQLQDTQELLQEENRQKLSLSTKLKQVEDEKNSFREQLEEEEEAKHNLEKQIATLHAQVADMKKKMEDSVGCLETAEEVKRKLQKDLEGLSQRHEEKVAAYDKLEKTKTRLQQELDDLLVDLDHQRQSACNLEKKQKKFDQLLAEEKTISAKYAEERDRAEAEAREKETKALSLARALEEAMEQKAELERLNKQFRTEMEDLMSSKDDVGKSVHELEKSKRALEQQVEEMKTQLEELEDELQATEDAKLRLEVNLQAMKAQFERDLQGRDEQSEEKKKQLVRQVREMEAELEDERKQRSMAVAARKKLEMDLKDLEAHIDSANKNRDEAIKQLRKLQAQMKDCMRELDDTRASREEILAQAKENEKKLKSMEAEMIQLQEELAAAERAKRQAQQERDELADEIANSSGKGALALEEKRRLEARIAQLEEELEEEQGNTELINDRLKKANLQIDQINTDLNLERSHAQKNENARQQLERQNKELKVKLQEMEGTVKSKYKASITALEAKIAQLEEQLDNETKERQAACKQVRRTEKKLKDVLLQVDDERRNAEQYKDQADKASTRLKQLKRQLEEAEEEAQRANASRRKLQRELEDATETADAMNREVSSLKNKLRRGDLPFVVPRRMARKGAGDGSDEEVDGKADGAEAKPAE
Sequence of Tubulin beta chain (Homo sapiens) (P07437 whole entry): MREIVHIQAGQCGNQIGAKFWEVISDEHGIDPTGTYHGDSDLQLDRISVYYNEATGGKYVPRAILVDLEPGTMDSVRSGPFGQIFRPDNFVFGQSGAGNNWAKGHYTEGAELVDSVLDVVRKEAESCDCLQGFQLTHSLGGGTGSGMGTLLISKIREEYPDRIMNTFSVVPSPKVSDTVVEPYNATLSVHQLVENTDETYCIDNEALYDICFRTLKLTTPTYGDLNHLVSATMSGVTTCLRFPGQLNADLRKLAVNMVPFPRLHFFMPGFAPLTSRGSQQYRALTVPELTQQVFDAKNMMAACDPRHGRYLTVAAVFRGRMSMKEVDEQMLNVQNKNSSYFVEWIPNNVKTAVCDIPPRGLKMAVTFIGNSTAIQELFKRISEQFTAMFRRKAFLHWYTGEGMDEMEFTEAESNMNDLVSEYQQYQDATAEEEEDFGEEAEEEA
Sequence of Junctional sarcoplasmic reticulum protein 1 (Homo sapiens) (Q96MG2 whole entry): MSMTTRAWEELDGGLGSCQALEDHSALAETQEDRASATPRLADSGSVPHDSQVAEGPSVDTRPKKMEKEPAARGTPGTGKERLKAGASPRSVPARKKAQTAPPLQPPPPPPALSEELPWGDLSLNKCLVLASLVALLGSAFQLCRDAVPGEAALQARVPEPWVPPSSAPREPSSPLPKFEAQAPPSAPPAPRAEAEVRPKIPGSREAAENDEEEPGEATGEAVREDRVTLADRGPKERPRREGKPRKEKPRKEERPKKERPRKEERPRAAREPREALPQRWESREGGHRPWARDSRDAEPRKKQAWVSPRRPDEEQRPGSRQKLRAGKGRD

## i3XFLAG-NLS-CTDaa154-424
[1]
  PSMs: 6 PSMs
[2]
  PSMs: 68 PSMs
[3]
  PSMs: 9 PSMs
[4]
  PSMs: 48 PSMs
Serpin B3 (Homo sapiens)
  PSMs: 2 PSMs
[5]
  PSMs: 9 PSMs
[6]
  PSMs: 3 PSMs
[7]
  PSMs: 11 PSMs
[8]
  PSMs: 3 PSMs
[9]
  PSMs: 3 PSMs
[10]
  PSMs: 9 PSMs
[11]
  PSMs: 3 PSMs
[12]
  PSMs: 2 PSMs
[13]
  PSMs: 21 PSMs
[14]
  PSMs: 10 PSMs
[15]
  PSMs: 4 PSMs
[16]
  PSMs: 47 PSMs
[17]
  PSMs: 34 PSMs
[18]
  PSMs: 62 PSMs
[19]
  PSMs: 2 PSMs
[20]
  PSMs: 2 PSMs
[21]
  PSMs: 11 PSMs
[22]
  PSMs: 75 PSMs
[23]
  PSMs: 31 PSMs
[24]
  PSMs: 2 PSMs
Myosin-9 (Homo sapiens)
  PSMs: 242 PSMs
[25]
  PSMs: 9 PSMs
[26]
  PSMs: 2 PSMs
[27]
  PSMs: 3 PSMs
[28]
  PSMs: 3 PSMs
[29]
  PSMs: 10 PSMs
[30]
  PSMs: 39 PSMs
[31]
  PSMs: 61 PSMs
[32]
  PSMs: 2 PSMs
[33]
  PSMs: 2 PSMs
[34]
  PSMs: 3 PSMs
[35]
  PSMs: 20 PSMs
